For 167 variants, self-cleavage results are on record in the RNAGym collection of RNA variant scans (doi:10.7554/elife.90254).

B1: LINE1-full (parent)
chain: UACGUAGGUGGUUUUCCCCUGAUAGUGCUAAGGGGGCCUGGAAGUUUGGACUGGGCAGAGCUCAACACAGCGUGGCAAAGUGGCUGUGGCUAGACUGCCUCUCUGGAUUCCUCGUCACUCAGCAGGGCAUCUCUGAGAGAAAUGCC

The variants in this data set derive from B1. Nature of the data set: self-cleavage, relative activity (ratio to wild type); higher = more cleavage; in vitro, sequencing; the parent is a self-cleaving ribozyme.
U81C A141G: the self-cleavage stood at 1.07. The value for U85A A94G was 0.15. The figure for C84U U119C is 0.12; for U81A A121U it is 1.7; for U81A A121G it is 2.65. For the variant G83C U132A, the self-cleavage is 0.73. The value for U81C A129G was 1.56.

Consider C84A A136U, for which the self-cleavage was 0.19.

On to U85A A138G, for which the self-cleavage is 0.07. The value for U85A A138U was 0.06; that for U81A U102C was 2.18; that for U81C C111U was 1.75.

Regarding C84U G114U, the self-cleavage was 0.15. The figure for G80U A124G is 1.69.

As for U81C U96A, the self-cleavage stood at 0.1. The figure for U81C U96C is 0.2. The value for G83A U130C was 1.13; that for C84A A140G was 0.13; that for C84U A140G was 0.07. The value for G83U U119A was 0.65; that for U81C U87A was 0.1; that for C84U U108C was 0.15. Take U85A A142G: the self-cleavage turned out to be 0.08. Consider U81A A94U, for which the self-cleavage is 0.6. The figure for U81A A94G is 0.37.

With G82A A136G, the self-cleavage came to 2.28. The figure for U81C G126U is 1.4; for U81C U85C it is 0.12; for G80U A138G it is 1.45. The figure for U85A A129U is 0.12; for U85A A129G it is 0.07. On to G83A C90U, for which the self-cleavage was 0.06. The value for U85A C101U was 0.06. The figure for G83U U143C is 1.01.

Take G83A A140G: the self-cleavage is 0.49. In the case of C84A G93U, the self-cleavage turned out to be 0.05.

Turning to U81C A121C, the self-cleavage is 1.37.

Consider U81G A140U, for which the self-cleavage worked out at 1.35. The figure for C84G U96A is 0.09; for C84A U112C it is 0.16; for U81A U104A it is 1.81. The figure for U81A U104C is 2.77; for G83A G127A it is 0.52. The value for C84U A124U was 0.18; that for G83A A124U was 0.79; that for U81C G144A was 0.42. Consider G82A A129U, for which the self-cleavage came out at 1.21. The figure for G82A A129G is 2.28. For the variant G83A G144U, the self-cleavage is 1.55. For the variant C84U U100A, the self-cleavage was 0.07. Turning to U81G U104C, the self-cleavage came out at 0.26. The value for G82A A94G was 0.26; that for C84A C131A was 0.18.

In the case of U85A A92G, the self-cleavage came to 0.13.

On to U85A A92U, for which the self-cleavage was determined as 0.11. In the case of U81C C146A, the self-cleavage came to 1.8. Take G82A U91C: the self-cleavage worked out at 0.94. The figure for U81A C123U is 1.01; for U85A A107G it is 0.08. The value for G83A U109A was 0.96; that for G82U A129G was 1.54. The value for U81G G122U was 1.42; that for U81A A140G was 1.95. Take U81C G89A: the self-cleavage is 0.06. The figure for C84U A121U is 0.11. With G83A U100C, the self-cleavage stood at 1.21. The figure for U81A A124U is 1.78. The value for G82A U85C was 0.23; that for G82A U85A was 0.14. In the case of G83C U143G, the self-cleavage was found to be 1.08.

For U81G A124U, the self-cleavage amounted to 1.75.

In the case of U85A A136G, the self-cleavage is 0.11. The value for U81G A141G was 1.85; that for U81C U112C was 1.26; that for G82A A141G was 1.8. The figure for G83U U108C is 1.07; for U81C U130A it is 1.27; for U81C U130C it is 1.88. The figure for G83A U96C is 0.11; for U81C U109C it is 0.38. In the case of C84G A140G, the self-cleavage is 0.12.

Turning to U81A U108C, the self-cleavage came out at 2.2. With U81A U108A, the self-cleavage worked out at 2.18. The value for G82A A142G was 2.1.

On to U81A U109A, for which the self-cleavage was 2.28.

For U85A C111A, the self-cleavage is 0.06. The figure for C84U U109C is 0.1; for U81C A124U it is 0.74; for U81C A124G it is 1.25. The value for C84U A141G was 0.14. The figure for G83U U102C is 0; for U81C G114A it is 1.17. For U81A U100C, the self-cleavage came to 2.98. The value for G82A C99A was 0.78; that for G82U A117U was 1.3; that for U81A U87C was 0.19. Regarding U81A U87A, the self-cleavage is 0.11.

On to U81C A140U, for which the self-cleavage stood at 1.9.

For U81C G125U, the self-cleavage stood at 1.5. The figure for U81C G127A is 2.07; for G80U U132A it is 2.3; for U81C U91A it is 0.56. The value for U81A A92G was 0.15. The value for U81G C113U was 1.99; that for U81C U104C was 1.48. In the case of U81C U100C, the self-cleavage is 1.29. As for G80U A121G, the self-cleavage amounted to 1.5. The value for G82A G114C was 3.

In the case of U81A U85C, the self-cleavage was determined as 0.16. The value for G82A U134G was 1.08; that for G82U U112C was 1.18; that for G80U U134A was 1.45. The value for C84A U130A was 0.07; that for C84U A117G was 0.2; that for U85A was 0.09. The figure for U81A U112C is 2.32. With G83A A142G, the self-cleavage worked out at 0.97. The value for U81C G88U was 0.05; that for U81C G88A was 0.12; that for U81G U115A was 1.28. The figure for U85A A124U is 0.08. The figure for C84U U96C is 0.04.

On to G83U A141G, for which the self-cleavage turned out to be 0.99. The value for G82A U102C was 1.57; that for U85A A140G was 0.08; that for U85A A140U was 0.09.

As for C84A A138G, the self-cleavage stood at 0.05. The value for G82A U104C was 0.83; that for U81A C118U was 1.78; that for C84U C98G was 0.08. On to U81A U134C, for which the self-cleavage turned out to be 2.26. The value for U81C U119C was 1.84.

Turning to U85A A117U, the self-cleavage amounted to 0.09. On to U85A A117G, for which the self-cleavage was 0.15. The value for U85A A117C was 0.07; that for G82A A92G was 0.04. On to G82A, for which the self-cleavage turned out to be 1.75. In the case of G82U, the self-cleavage is 1.52. The figure for U81A U130A is 1.3; for U81A U91A it is 0.93; for U81A A107G it is 1.84. The value for U81C A117U was 1.56; that for U81C A117C was 1.59; that for G83A A121C was 0.67. As to U81A G114C, the self-cleavage amounted to 2.67.

Consider C84G U132C, for which the self-cleavage was 0.11. The value for U81A C146A was 2.08; that for G83A U132A was 1.09; that for G83A A92U was 0.27. On to U85A A141U, for which the self-cleavage turned out to be 0.07. The figure for U85A A141G is 0.07. The value for U81C G139A was 1.63; that for C84G U104C was 0.11.

Consider G83A U134C, for which the self-cleavage worked out at 1.13. The value for C84U U102C was 0.16; that for U81C A138U was 1.22. In the case of U81C A138C, the self-cleavage amounted to 2.23. In the case of C84U U85C, the self-cleavage was found to be 0. Regarding U85A C120A, the self-cleavage was determined as 0.07.

Turning to U81C U134C, the self-cleavage amounted to 1.36. The value for U81C U134A was 0.94.

U81G U134G: the self-cleavage came to 1.73. U81C C95U: the self-cleavage was determined as 0.26.

In the case of U81C U143C, the self-cleavage is 1.61.

Take C84U A142G: the self-cleavage is 0.12. The value for G82A A117G was 1.77; that for U81C C101U was 2.14.
